The Human Domainome abundance scans (Beltran et al. 2025)
± gives the uncertainty stated by the source.

B1: DnaJ homolog subfamily C member 2, residues 451 to 503; numbered along this chain, Q99543 (parent)
chain: SKNWSEDDLQLLIKAVNLFPAGTNSRWEVIANYMNIHSSSGVKRTAKDVIGKA

Variants of: B1
Experiment: abundance fitness (aPCA) (normalised: wild type 0, dead -1); higher = more abundant; growth selection in yeast, the domain comes from the species named
Details: Homo sapiens

SKNWSEDDLQLLIKAVNLFPAGTNSRWEVIANYMNIHSASGVKRTAKDVIGKA [S39A] and SKNWSEDDLQLLIKAVNLFPAGTNSRWEVIANYMNIHSESGVKRTAKDVIGKA [S39E] are within error of each other in abundance fitness: 0.122 ± 0.067 for the first, 0.076 ± 0.074 for the second.

SKNWSEDDLQLLIKAVNLFPAGTNSRWEVIANYMNIHSWSGVKRTAKDVIGKA [S39W] and SKNWSEDDLQLLIKAVNLFPAGTNSRWEVIANYMNIHSQSGVKRTAKDVIGKA [S39Q] are within error of each other in abundance fitness: -0.183 ± 0.067 for the first, -0.102 ± 0.082 for the second.

Going from SKNWSEDDLQLLIKAVNLFPAGTNSRWEVIANYMNIHSNSGVKRTAKDVIGKA [S39N] to SKNWSEDDLQLLIKAVNLFPAGTNSRWEVIANYMNIHSYSGVKRTAKDVIGKA [S39Y], the abundance fitness falls from -0.076 ± 0.1 to -0.339 ± 0.083.

SKNWSEDDLQLLIKAVNLFPAGTNSRWEVIANYMNIHSVSGVKRTAKDVIGKA [S39V] and SKNWSEDDLQLLIKAVNLFPAGTNSRWEVIANYMNIHSMSGVKRTAKDVIGKA [S39M] are within error of each other in abundance fitness: -0.158 ± 0.06 for the first, -0.122 ± 0.084 for the second.

SKNWSEDDLQLLIKAVNLFPAGTNSRWEVIANYMNIHSKSGVKRTAKDVIGKA [S39K] and SKNWSEDDLQLLIKAVNLFPAGTNSRWEVIANYMNIHSRSGVKRTAKDVIGKA [S39R] are within error of each other in abundance fitness: -0.086 ± 0.086 for the first, 0 ± 0.056 for the second.

Compared with SKNWSEDDLQLLIKAVNLFPAGTNSRWEVIANYMNIHSFSGVKRTAKDVIGKA [S39F], SKNWSEDDLQLLIKAVNLFPAGTNSRWEVIANYMNIHSPSGVKRTAKDVIGKA [S39P] is higher in abundance fitness: -0.362 ± 0.071 for the first, 0.001 ± 0.08 for the second.

SKNWSEDDLQLLIKAVNLFPAGTNSRWEVIANYMNIHSDSGVKRTAKDVIGKA [S39D] and SKNWSEDDLQLLIKAVNLFPAGTNSRWEVIANYMNIHSLSGVKRTAKDVIGKA [S39L] are within error of each other in abundance fitness: 0.03 ± 0.093 for the first, -0.095 ± 0.058 for the second.

SKNWSEDDLQLLIKAVNLFPAGTNSRWEVIANYMNIHSGSGVKRTAKDVIGKA [S39G] and SKNWSEDDLQLLIKAVNLFPAGTNSRWEVIANYMNIHSHSGVKRTAKDVIGKA [S39H] are within error of each other in abundance fitness: 0.016 ± 0.061 for the first, 0.05 ± 0.094 for the second.

SKNWSEDDLQLLIKAVNLFPAGTNSRWEVIANYMNIHSISGVKRTAKDVIGKA [S39I] and SKNWSEDDLQLLIKAVNLFPAGTNSRWEVIANYMNIHSSSNVKRTAKDVIGKA [G41N] are within error of each other in abundance fitness: -0.197 ± 0.1 for the first, -0.143 ± 0.1 for the second.

SKNWSEDDLQLLIKAVNLFPAGTNSRWEVIANYMNIHSSSKVKRTAKDVIGKA [G41K] and SKNWSEDDLQLLIKAVNLFPAGTNSRWEVIANYMNIHSSSIVKRTAKDVIGKA [G41I] are within error of each other in abundance fitness: 0.001 ± 0.077 for the first, -0.119 ± 0.19 for the second.

SKNWSEDDLQLLIKAVNLFPAGTNSRWEVIANYMNIHSSSTVKRTAKDVIGKA [G41T] and SKNWSEDDLQLLIKAVNLFPAGTNSRWEVIANYMNIHSSSCVKRTAKDVIGKA [G41C] are within error of each other in abundance fitness: -0.072 ± 0.074 for the first, -0.103 ± 0.087 for the second.

SKNWSEDDLQLLIKAVNLFPAGTNSRWEVIANYMNIHSSSEVKRTAKDVIGKA [G41E] and SKNWSEDDLQLLIKAVNLFPAGTNSRWEVIANYMNIHSSSHVKRTAKDVIGKA [G41H] are within error of each other in abundance fitness: -0.151 ± 0.086 for the first, -0.129 ± 0.099 for the second.

Compared with SKNWSEDDLQLLIKAVNLFPAGTNSRWEVIANYMNIHSSSMVKRTAKDVIGKA [G41M], SKNWSEDDLQLLIKAVNLFPAGTNSRWEVIANYMNIHSSSWVKRTAKDVIGKA [G41W] is lower in abundance fitness: -0.035 ± 0.086 for the first, -0.645 ± 0.077 for the second.

SKNWSEDDLQLLIKAVNLFPAGTNSRWEVIANYMNIHSSSFVKRTAKDVIGKA [G41F] and SKNWSEDDLQLLIKAVNLFPAGTNSRWEVIANYMNIHSSSAVKRTAKDVIGKA [G41A] are within error of each other in abundance fitness: 0.064 ± 0.13 for the first, 0.089 ± 0.067 for the second.

SKNWSEDDLQLLIKAVNLFPAGTNSRWEVIANYMNIHSSSLVKRTAKDVIGKA [G41L] and SKNWSEDDLQLLIKAVNLFPAGTNSRWEVIANYMNIHSSSYVKRTAKDVIGKA [G41Y] are within error of each other in abundance fitness: -0.186 ± 0.06 for the first, -0.25 ± 0.1 for the second.

SKNWSEDDLQLLIKAVNLFPAGTNSRWEVIANYMNIHSSSPVKRTAKDVIGKA [G41P] and SKNWSEDDLQLLIKAVNLFPAGTNSRWEVIANYMNIHSSSRVKRTAKDVIGKA [G41R] are within error of each other in abundance fitness: -0.114 ± 0.074 for the first, -0.061 ± 0.056 for the second.

Going from SKNWSEDDLQLLIKAVNLFPAGTNSRWEVIANYMNIHSSSDVKRTAKDVIGKA [G41D] to SKNWSEDDLQLLIKAVNLFPAGTNSRWEVIANYMNIHSSMGVKRTAKDVIGKA [S40M], the abundance fitness falls from -0.066 ± 0.075 to -0.536 ± 0.12.

SKNWSEDDLQLLIKAVNLFPAGTNSRWEVIANYMNIHSSVGVKRTAKDVIGKA [S40V] and SKNWSEDDLQLLIKAVNLFPAGTNSRWEVIANYMNIHSSPGVKRTAKDVIGKA [S40P] are within error of each other in abundance fitness: -0.484 ± 0.07 for the first, -0.52 ± 0.091 for the second.

SKNWSEDDLQLLIKAVNLFPAGTNSRWEVIANYMNIHSSNGVKRTAKDVIGKA [S40N] and SKNWSEDDLQLLIKAVNLFPAGTNSRWEVIANYMNIHSSHGVKRTAKDVIGKA [S40H] are within error of each other in abundance fitness: -0.16 ± 0.1 for the first, -0.125 ± 0.098 for the second.

First: SKNWSEDDLQLLIKAVNLFPAGTNSRWEVIANYMNIHSSAGVKRTAKDVIGKA [S40A]
Second: SKNWSEDDLQLLIKAVNLFPAGTNSRWEVIANYMNIHSSWGVKRTAKDVIGKA [S40W]
The abundance fitness of the first is higher: 0.009 ± 0.069 for the first, -0.646 ± 0.08 for the second.

SKNWSEDDLQLLIKAVNLFPAGTNSRWEVIANYMNIHSSTGVKRTAKDVIGKA [S40T] and SKNWSEDDLQLLIKAVNLFPAGTNSRWEVIANYMNIHSSQGVKRTAKDVIGKA [S40Q] are within error of each other in abundance fitness: -0.166 ± 0.076 for the first, -0.158 ± 0.072 for the second.

SKNWSEDDLQLLIKAVNLFPAGTNSRWEVIANYMNIHSSEGVKRTAKDVIGKA [S40E] and SKNWSEDDLQLLIKAVNLFPAGTNSRWEVIANYMNIHSSDGVKRTAKDVIGKA [S40D] are within error of each other in abundance fitness: -0.336 ± 0.087 for the first, -0.282 ± 0.085 for the second.

Going from SKNWSEDDLQLLIKAVNLFPAGTNSRWEVIANYMNIHSSRGVKRTAKDVIGKA [S40R] to SKNWSEDDLQLLIKAVNLFPAGTNSRWEVIANYMNIHSSYGVKRTAKDVIGKA [S40Y], the abundance fitness falls from -0.286 ± 0.055 to -0.504 ± 0.1.

Going from SKNWSEDDLQLLIKAVNLFPAGTNSRWEVIANYMNIHSSKGVKRTAKDVIGKA [S40K] to SKNWSEDDLQLLIKAVNLFPAGTNSRWEVIANYMNIHSSFGVKRTAKDVIGKA [S40F], the abundance fitness falls from -0.302 ± 0.074 to -0.559 ± 0.099.

SKNWSEDDLQLLIKAVNLFPAGTNSRWEVIANYMNIHSSCGVKRTAKDVIGKA [S40C] and SKNWSEDDLQLLIKAVNLFPAGTNSRWEVIANYMNIHSSLGVKRTAKDVIGKA [S40L] are within error of each other in abundance fitness: -0.217 ± 0.072 for the first, -0.306 ± 0.066 for the second.
